Test results: patent US20240197919A1 (CALIFORNIA INSTITUTE OF TECHNOLOGY, published 2024)
Positions count from the first letter of the chain named.

Target: T1, Ly6a-Fc fusion protein (murine, UniProt P05533 27-112)
T1 construct: Captured on a protein A sensor chip for SPR; also called Ly6a-Fc protein; not shown: Fc part
T1 sequence: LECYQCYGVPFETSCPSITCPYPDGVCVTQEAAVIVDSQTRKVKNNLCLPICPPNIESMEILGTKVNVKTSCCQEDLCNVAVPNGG
Assay: SPR, Ly6a-Fc captured on protein A chip, rAAV injected as analyte

B1: AAV-X1 (other)
chain: MAADGYLPDWLEDNLSEGIREWWALKPGAPQPKANQQHQDNARGLVLPGYKYLGPGNGLDKGEPVNAADAAALEHDKAYDQQLKAGDNPYLKYNHADAEFQERLKEDTSFGGNLGRAVFQAKKRLLEPLGLVEEAAKTAPGKKRPVEQSPQEPDSSAGIGKSGAQPAKKRLNFGQTGDTESVPDPQPIGEPPAAPSGVGSLTMASGGGAPVADNNEGADGVGSSSGNWHCDSQWLGDRVITTSTRTWALPTYNNHLYKQISNSTSGGSSNDNAYFGYSTPWGYFDFNRFHCHFSPRDWQRLINNNWGFRPKRLNFKLFNIQVKEVTDNNGVKTIANNLTSTVQVFTDSDYQLPYVLGSAHEGCLPPFPADVFMIPQYGYLTLNDGSQAVGRSSFYCLEYFPSQMLRTGNNFQFSYEFENVPFHSSYAHSQSLDRLMNPLIDQYLYYLSRTINGSGQNQQTLKFSVAGPSNMAVQGRNYIPGPSYRQQRVSTTVTQNNNSEFAWPGASSWALNGRNSLMNPGPAMASHKEGEDRFFPLSGSLIFGKQGTGRDNVDADKVMITNEEEIKTTNPVATESYGQVATNHQSAQGNNTRSVAQAQTGWVQNQGILPGMVWQDRDVYLQGPIWAKIPHTDGNFHPSPLMGGFGMKHPPPQILIKNTPVPADPPTAFNKDKLNSFITQYSTGQVSVEIEWELQKENSKRWNPEIQYTSNYYKSNNVEFAVNTEGVYSEPRPIGTRYLTRNL
notes: Tested as an assembled rAAV particle; also called AAV-CAP.X1
  binding result: no binding

B2: AAV-X1.1 (other)
chain: B1 chain with N452D, S454A, G455A, Q456T, N457K, Q458N
notes: Tested as an assembled rAAV particle; also called AAV9-X1.1
  binding result: no binding
